Details in all cases: both partners purified
The target in test [1] is T1, MCM3 (human) (human, UniProt P25205 1-808).
T1 construct: MCM3, human; stood in the assay as a subunit of m19
T1 sequence: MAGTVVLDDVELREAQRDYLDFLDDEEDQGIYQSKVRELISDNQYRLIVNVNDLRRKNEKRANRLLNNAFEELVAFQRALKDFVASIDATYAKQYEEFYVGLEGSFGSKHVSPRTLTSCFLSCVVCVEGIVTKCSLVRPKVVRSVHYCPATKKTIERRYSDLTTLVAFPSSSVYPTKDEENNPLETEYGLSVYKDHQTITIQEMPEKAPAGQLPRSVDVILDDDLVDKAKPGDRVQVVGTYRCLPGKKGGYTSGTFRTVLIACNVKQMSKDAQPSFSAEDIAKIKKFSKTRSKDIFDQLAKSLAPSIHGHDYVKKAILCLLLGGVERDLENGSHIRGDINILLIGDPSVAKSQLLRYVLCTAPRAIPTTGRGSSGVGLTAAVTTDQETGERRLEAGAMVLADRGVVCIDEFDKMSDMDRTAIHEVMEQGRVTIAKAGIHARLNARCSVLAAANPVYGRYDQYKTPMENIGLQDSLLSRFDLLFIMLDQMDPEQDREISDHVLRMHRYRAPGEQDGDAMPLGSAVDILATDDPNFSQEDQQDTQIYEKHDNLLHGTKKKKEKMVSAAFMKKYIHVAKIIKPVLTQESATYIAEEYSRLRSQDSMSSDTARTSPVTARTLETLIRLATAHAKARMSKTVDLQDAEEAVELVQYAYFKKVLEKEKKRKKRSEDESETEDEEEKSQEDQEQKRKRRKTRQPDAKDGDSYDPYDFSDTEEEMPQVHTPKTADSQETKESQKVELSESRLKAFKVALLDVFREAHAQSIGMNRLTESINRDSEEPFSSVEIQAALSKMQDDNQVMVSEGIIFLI
Kind of test: cryo-EM structure; human replisome: 150 nM CMG on fork DNA (60 nt or 15 nt 5′ flap) with 1.5-fold molar excess of AND-1, TIMELESS-TIPIN, CLASPIN and Pol α-primase; 25 mM HEPES-NaOH pH 7.6, 150 mM NaOAc, 0.5 mM TCEP, 500 μM AMP-PNP, 10 mM Mg(OAc)2, on ice; 10-30% glycerol gradient with glutaraldehyde and BS3 cross-linkers.

Test [2] concerns the target T2, Mcm3 (budding yeast) (S. cerevisiae, UniProt P24279 1-971).
T2 construct: Mcm3, S. cerevisiae; stood in the assay as a subunit of m2; source: subunit of CMG from S. cerevisiae strain yJY197, purified as described previously
Kind of test: cryo-EM structure; budding yeast replisome: 150 nM CMG on fork DNA (39 nt 3′ flap, 60 nt 5′ flap) with 1.5-fold molar excess of Tof1-Csm3, Mrc1 and Pol α-primase; 25 mM HEPES-NaOH pH 7.6, 150 mM NaOAc, 0.5 mM TCEP, 500 μM AMP-PNP, 10 mM Mg(OAc)2, on ice; 10-30% glycerol gradient with glutaraldehyde and BS3 cross-linkers.

For test [3], the target named is T3, Mcm5 (budding yeast) (S. cerevisiae, UniProt P29496 1-775).
T3 construct: Mcm5, S. cerevisiae; stood in the assay as a subunit of m2; also called Mcm5ZnF; source: subunit of CMG from S. cerevisiae strain yJY197, purified as described previously
T3 sequence: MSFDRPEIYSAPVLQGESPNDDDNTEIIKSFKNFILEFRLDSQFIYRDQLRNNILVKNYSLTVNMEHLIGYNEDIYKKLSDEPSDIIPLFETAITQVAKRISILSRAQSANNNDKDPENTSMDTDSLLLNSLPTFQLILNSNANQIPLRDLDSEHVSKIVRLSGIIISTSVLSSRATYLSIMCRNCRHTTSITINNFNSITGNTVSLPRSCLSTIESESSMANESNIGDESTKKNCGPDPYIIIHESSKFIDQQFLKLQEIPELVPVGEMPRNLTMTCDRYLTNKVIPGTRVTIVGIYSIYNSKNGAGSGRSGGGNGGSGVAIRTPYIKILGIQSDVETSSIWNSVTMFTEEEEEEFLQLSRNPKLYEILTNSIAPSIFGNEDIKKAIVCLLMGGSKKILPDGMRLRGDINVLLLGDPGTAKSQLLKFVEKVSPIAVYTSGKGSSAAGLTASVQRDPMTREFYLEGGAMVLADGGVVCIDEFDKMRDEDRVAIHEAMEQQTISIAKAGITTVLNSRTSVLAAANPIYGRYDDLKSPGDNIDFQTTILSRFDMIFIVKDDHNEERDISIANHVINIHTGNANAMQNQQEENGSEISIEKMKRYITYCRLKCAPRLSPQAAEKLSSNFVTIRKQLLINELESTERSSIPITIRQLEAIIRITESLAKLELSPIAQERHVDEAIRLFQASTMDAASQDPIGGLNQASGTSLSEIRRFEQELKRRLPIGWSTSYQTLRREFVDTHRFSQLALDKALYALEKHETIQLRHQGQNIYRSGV
The description is as above.

For test [4], the target named is T4, Pol1 (budding yeast Pol α catalytic subunit) (S. cerevisiae, UniProt P13382 1-1468).
T4 construct: Pol1, S. cerevisiae; modelled: CTD 1271-1468 and CIP box F140-S149; stood in the assay as a subunit of m1; also called Pol1CTD; Pol1CIP; source: subunit of Pol α-primase from S. cerevisiae strain yAE95, purified as described previously
T4 sequence: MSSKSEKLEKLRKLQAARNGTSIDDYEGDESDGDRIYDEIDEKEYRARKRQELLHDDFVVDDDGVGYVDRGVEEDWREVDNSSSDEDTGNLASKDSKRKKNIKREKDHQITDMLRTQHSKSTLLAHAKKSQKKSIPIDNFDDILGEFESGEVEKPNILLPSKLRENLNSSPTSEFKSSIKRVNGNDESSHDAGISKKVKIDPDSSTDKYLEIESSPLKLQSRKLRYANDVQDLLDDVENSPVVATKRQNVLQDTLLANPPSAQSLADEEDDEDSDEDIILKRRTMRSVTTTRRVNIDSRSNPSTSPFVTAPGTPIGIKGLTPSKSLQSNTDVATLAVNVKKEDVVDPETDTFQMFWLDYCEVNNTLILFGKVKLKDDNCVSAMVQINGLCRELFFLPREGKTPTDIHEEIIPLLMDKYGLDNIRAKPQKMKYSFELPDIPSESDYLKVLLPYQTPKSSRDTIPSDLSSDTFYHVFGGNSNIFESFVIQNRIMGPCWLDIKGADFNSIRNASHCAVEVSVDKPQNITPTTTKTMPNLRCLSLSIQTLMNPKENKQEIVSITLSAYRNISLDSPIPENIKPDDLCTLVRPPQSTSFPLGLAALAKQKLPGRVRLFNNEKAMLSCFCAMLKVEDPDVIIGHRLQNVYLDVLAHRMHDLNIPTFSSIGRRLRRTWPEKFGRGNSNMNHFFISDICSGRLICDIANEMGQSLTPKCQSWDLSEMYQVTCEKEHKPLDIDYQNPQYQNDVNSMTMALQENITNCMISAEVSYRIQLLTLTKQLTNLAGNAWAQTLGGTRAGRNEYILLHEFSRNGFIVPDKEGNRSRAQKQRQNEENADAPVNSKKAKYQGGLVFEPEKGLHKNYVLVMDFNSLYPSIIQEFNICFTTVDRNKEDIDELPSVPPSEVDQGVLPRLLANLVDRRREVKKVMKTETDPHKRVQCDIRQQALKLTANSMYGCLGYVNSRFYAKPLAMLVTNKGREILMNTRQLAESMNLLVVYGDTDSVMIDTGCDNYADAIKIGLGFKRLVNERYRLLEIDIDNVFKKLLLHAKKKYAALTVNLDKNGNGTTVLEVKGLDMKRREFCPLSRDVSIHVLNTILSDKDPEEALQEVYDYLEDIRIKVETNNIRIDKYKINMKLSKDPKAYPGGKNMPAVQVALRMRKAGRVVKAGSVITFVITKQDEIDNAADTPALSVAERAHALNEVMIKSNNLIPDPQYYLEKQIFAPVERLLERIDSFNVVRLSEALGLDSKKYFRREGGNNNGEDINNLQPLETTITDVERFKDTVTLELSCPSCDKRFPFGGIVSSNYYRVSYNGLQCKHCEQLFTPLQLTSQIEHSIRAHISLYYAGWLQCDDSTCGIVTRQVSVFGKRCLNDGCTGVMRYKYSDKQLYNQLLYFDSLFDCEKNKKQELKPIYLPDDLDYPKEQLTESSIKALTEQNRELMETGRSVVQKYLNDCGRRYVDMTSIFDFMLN
The description is as above.

T2 sequence (P24279 whole entry): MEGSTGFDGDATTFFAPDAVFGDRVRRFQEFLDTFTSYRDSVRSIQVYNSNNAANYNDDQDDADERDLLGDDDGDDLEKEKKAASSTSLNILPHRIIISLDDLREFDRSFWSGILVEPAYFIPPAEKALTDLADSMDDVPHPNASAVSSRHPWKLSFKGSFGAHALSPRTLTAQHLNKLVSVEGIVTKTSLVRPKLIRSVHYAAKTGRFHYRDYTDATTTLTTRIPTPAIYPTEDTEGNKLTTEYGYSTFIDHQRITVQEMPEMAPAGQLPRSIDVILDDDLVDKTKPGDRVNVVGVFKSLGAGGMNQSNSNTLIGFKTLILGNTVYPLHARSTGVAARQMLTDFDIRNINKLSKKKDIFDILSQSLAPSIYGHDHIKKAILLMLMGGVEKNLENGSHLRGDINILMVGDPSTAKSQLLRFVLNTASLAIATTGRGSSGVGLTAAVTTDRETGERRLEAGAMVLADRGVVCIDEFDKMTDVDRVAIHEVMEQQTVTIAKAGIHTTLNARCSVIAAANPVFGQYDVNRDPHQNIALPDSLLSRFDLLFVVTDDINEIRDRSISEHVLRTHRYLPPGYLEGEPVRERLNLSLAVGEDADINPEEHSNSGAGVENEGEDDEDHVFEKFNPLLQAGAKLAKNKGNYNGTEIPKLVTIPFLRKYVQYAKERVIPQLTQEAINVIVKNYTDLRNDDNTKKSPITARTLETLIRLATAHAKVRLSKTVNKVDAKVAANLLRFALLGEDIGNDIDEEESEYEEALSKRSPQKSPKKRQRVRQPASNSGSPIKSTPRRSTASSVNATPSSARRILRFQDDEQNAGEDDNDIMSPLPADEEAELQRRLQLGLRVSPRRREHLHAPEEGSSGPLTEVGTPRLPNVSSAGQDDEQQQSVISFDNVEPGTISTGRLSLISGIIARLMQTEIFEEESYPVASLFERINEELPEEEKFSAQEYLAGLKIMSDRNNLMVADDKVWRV

B1: PRIM2 (human primase accessory subunit) (natural protein)
chain: MEFSGRKWRKLRLAGDQRNASYPHCLQFYLQPPSENISLIEFENLAIDRVKLLKSVENLGVSYVKGTEQYQSKLESELRKLKFSYRENLEDEYEPRRRDHISHFILRLAYCQSEELRRWFIQQEMDLLRFRFSILPKDKIQDFLKDSQLQFEAISDEEKTLREQEIVASSPSLSGLKLGFESIYKIPFADALDLFRGRKVYLEDGFAYVPLKDIVAIILNEFRAKLSKALALTARSLPAVQSDERLQPLLNHLSHSYTGQDYSTQGNVGKISLDQIDLLSTKSFPPCMRQLHKALRENHHLRHGGRMQYGLFLKGIGLTLEQALQFWKQEFIKGKMDPDKFDKGYSYNIRHSFGKEGKRTDYTPFSCLKIILSNPPSQGDYHGCPFRHSDPELLKQKLQSYKISPGGISQILDLVKGTHYQVACQKYFEMIHNVDDCGFSLNHPNQFFCESQRILNGGKDIKKEPIQPETPQPKPSVQKTKDASSALASLNSSLEMDMEGLEDYFSEDS
notes: PRIM2, human; modelled residues 1-5 (N terminus) and 17-252 (NTD); stood in the assay as a subunit of m18; also called PRIM2NTD; PRIM2_(Nterm)
B1: the binding result in test [1] is given as “binds”.

B2: Pri2 (budding yeast primase accessory subunit) (natural protein, S. cerevisiae)
chain: MFRQSKRRIASRKNFSSYDDIVKSELDVGNTNAANQIILSSSSSEEEKKLYARLYESKLSFYDLPPQGEITLEQFEIWAIDRLKILLEIESCLSRNKSIKEIETIIKPQFQKLLPFNTESLEDRKKDYYSHFILRLCFCRSKELREKFVRAETFLFKIRFNMLTSTDQTKFVQSLDLPLLQFISNEEKAELSHQLYQTVSASLQFQLNLNEEHQRKQYFQQEKFIKLPFENVIELVGNRLVFLKDGYAYLPQFQQLNLLSNEFASKLNQELIKTYQYLPRLNEDDRLLPILNHLSSGYTIADFNQQKANQFSENVDDEINAQSVWSEEISSNYPLCIKNLMEGLKKNHHLRYYGRQQLSLFLKGIGLSADEALKFWSEAFTRNGNMTMEKFNKEYRYSFRHNYGLEGNRINYKPWDCHTILSKPRPGRGDYHGCPFRDWSHERLSAELRSMKLTQAQIISVLDSCQKGEYTIACTKVFEMTHNSASADLEIGEQTHIAHPNLYFERSRQLQKKQQKLEKEKLFNNGNH
notes: Pri2, S. cerevisiae; modelled residues 1-5 (N terminus), 44-177 and 181-299 (NTD); stood in the assay as a subunit of m1; also called Pri2NTD; Pri2_(Nterm); source: subunit of Pol α-primase from S. cerevisiae strain yAE95, purified as described previously
As for B2, the binding result in test [2], in test [3] and in test [4] was “binds” each time.

For the origin of these results see publication PMC10501992, “How Pol α-primase is targeted to replisomes to prime eukaryotic DNA replication” (Molecular Cell, 2023).
